Source: paper PMC9067936, “SHIP164 is a chorein motif lipid transfer protein that controls endosome–Golgi membrane traffic” (The Journal of Cell Biology, 2022)

B1: MBP-SHIP164 fusion (MBP fused to the N-terminus of SHIP164_(Δ901–1099)) (natural protein)
chain: not shown
notes: SHIP164 (UHRF1BP1L), human, codon-optimised ORF; lacks residues 901-1099; Probably made in Expi293F and purified as m1, possibly with a 3xFLAG tag as well; not shown: MBP (E. coli MBP residues 27–392 and two additional alanines), N-terminal, kept
B2: 3XFLAG-SHIP164_(Δ901–1099) (natural protein)
chain: not shown
notes: SHIP164 (UHRF1BP1L), human, codon-optimised ORF from Genscript; construct lacking the predicted unstructured segment, residues 901-1099; Seen as a tail-to-tail dimer in vitro; also called 3×FLAG-SHIP164_(Δ901–1099); UHRF1BP1L; source: Expi293F, transfected, purified (anti-FLAG M2 resin, gel filtration on Superdex 200); not shown: 3xFLAG, N-terminal, kept

Target: the molecule itself
Experiment: negative-stain electron microscopy; 2D class averages of negatively stained purified protein (50 nM, 2% uranyl acetate, carbon-coated copper grids); MBP densities used to locate the N-termini

| Protein | stoichiometry N |
| --- | --- |
| B1 | 2 |
| B2 | 2 |
